How the values were obtained:
[1] = target: TFPI (source and species not stated; Examples 8, 12 and 45), P10646
[2] = target: Recombinant human TFPI purified from a cell line from Novo Nordisk

TFPI (source and species not stated; Examples 8, 12 and 45), P10646, sequence (P10646 whole entry, looked up): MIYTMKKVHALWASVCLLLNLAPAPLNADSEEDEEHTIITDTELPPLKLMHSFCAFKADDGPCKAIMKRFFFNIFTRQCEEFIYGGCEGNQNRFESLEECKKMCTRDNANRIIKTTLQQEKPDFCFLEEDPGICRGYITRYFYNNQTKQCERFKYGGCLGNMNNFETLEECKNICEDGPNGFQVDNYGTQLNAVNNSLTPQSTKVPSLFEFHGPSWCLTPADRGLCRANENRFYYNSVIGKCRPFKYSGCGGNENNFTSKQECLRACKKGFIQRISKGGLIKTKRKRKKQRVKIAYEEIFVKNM

B1: Factor Xa (FXa) (protein)
chain 1: ANSFLEEMKKGHLERECMEETCSYEEAREVFEDSDKTNEFWNKYKDGDQCETSPCQNQGKCKDGLGEYTCTCLEGFEGKNCELFTRKLCSLDNGDCDQFCHEEQNSVVCSCARGYTLADNGKACIPTGPYPCGKQTLER
chain 2: IVGGQECKDGECPWQALLINEENEGFCGGTILSEFYILTAAHCLYQAKRFKVRVGDRNTEQEEGGEAVHEVEVVIKHNRFTKETYDFDIAVLRLKTPITFRMNVAPACLPERDWAESTLMTQKTGIVSGFGRTHEKGRQSTRLKMLEVPYVDRNSCKLSSSFIITQNMFCAGYDTKQEDACQGDSGGPHVTRFKDTYFVTGIVSWGEGCARKGKYGIYTKVTAFLKWIDRSMKTRGLPKAKSHAPEVITSSPLK
[1]
  FXa cleavage of chromogenic substrate S-2765, substrate added last, 1 nM FXa: In the presence of ≧8 nM TFPI, inhibition is nearly complete under these conditions and little product is formed

B2: tissue factor:FVIIa complex (TF:FVIIa) (protein)
chain 1: SGTTNTVAAYNLTWKSTNFKTILEWEPKPVNQVYTVQISTKSGDWKSKCFYTTDTECDLTDEIVKDVKQTYLARVFSYPAGNVESTGSAGEPLYENSPEFTPYLETNLGQPTIQSFEQVGTKVNVTVEDERTLVRRNNTFLSLRDVFGKDLIYTLYYWKSSSSGKKTAKTNTNEFLIDVDKGENYCFSVQAVIPSRTVNRKSTDSPVECMGQEKGEFREIFYIIGAVVFVVIILVIILAISLHKCRKAGVGQSWKENSPLNVS
chain 2: ANAFLEELRPGSLERECKEEQCSFEEAREIFKDAERTKLFWISYSDGDQCASSPCQNGGSCKDQLQSYICFCLPAFEGRNCETHKDDQLICVNENGGCEQYCSDHTGTKRSCRCHEGYSLLADGVSCTPTVEYPCGKIPILEKRNASKPQGRIVGGKVCPKGECPWQVLLLVNGAQLCGGTLINTIWVVSAAHCFDKIKNWRNLIAVLGEHDLSEHDGDEQSRRVAQVIIPSTYVPGTTNHDIALLRLHQPVVLTDHVVPLCLPERTFSERTLAFVRFSLVSGWGQLLDRGATALELMVLNVPRLMTQDCLQQSRKVGDSPNITEYMFCAGYSDGSKDSCKGDSGGPHATHYRGTWYLTGIVSWGQGCATVGHFGVYTRVSQYIEWLQKLMRSEPRPGVLLRAPFP
[1]
  TF:FVIIa activity, hydrolysis of fluorogenic substrate SN-17c, 8 nM TFPI: TFPI inhibited approximately 50% of TF:FVIIa activity under these conditions

B3: extrinsic Xase: re-lipidated recombinant human tissue factor (Innovin) with factor VIIa (Enzyme Research Laboratories) (protein)
chain 1: B2 chain 1
chain 2: B2 chain 2
[2]
  FXa generation by the extrinsic Xase (chromogenic FXa substrate), 2 nM TFPI: curve #6 shows that TFPI shuts down Xa generation in the absence of ARC19499
